Values joined by “and” are separate entries in the source; they are usually repeats but may differ in a detail not shown here. Equal values may be shown once. “Also recorded” adds a separate entry of the source.
Experiments:
OTII T cells = experiment: Adoptive transfer of CFSE-labeled OTII cells, immunization with CFA or mBSA, cell number and CFSE dilution; format: in vivo, mouse; conditions: for T cells that had undergone cell division: antigen 50 ng ± mBSA 50 μg subcutaneous, CFSE
Description: FIGS. 7A and 7B are a series of dot plots showing that inflammatory stimuli dampen the effects of DC targeting by (OVA)-3-1. FIG. 7A includes two dot plots showing the 5-(6)-carboxyfluorescein diacetate succinimidyl ester (CFSE), a cell-permeable dye, intensity present in a population of cells. 2×10^7 CFSE-labeled OTII splenocytes were adoptively transferred to B6.Ly5.2/Cr recipients and the mice were immunized subcutaneously with OVA (200 ng) or (OVA)-3-1 (200 ng) emulsified in Complete Freund's Adjuvant. At seventy-two hours post immunization the draining inguinal lymph nodes were isolated and the expansion of CD45.2^+Vα2^+ was evaluated for CFSE dilution by flow cytometry. 4×10^5 total counts were collected. The plots display the CFSE intensity associated with the gated population of Vα2^+CD45.2^+ donor cells. The numbers indicate the percentage of CFSE high (undivided; R3 gate) and CFSE low (divided; R4 gate) OTII T cells. FIG. 7B is a series of five dot plots showing the enhancement in T cell proliferation promoted by neoglycoprotein mBSA. CFSE-labeled OTII splenocytes were adoptively transferred as in (A) and mice were immunized subcutaneously with mBSA (50 μg); OVA (50 ng); (OVA)-3-1 (50 ng); OVA (50 ng)+mBSA (50 μg) or (OVA)-3-1 (50 ng)+mBSA (50 μg). At 3 days the mice were sacrificed and isolated cells were analyzed as described in (A). Both FIGS. 7A and 7B are results from one of two separate experiments.
These cytokines aid in the recruitment and activation of monocytes and dendritic cells at the site of administration, thereby promoting a heightened immune response. […] Prior to transferring the CD45.2 OTII T cells to the B6.Ly5.2/Cr recipients, the cells were stained with 5-(6)-carboxyfluorescein diacetate succinimidyl ester (CFSE), a cell-permeable dye that freely crosses the cell membrane; once inside the cell, however, cellular esterases hydrolyze the CFSE's ester functional groups to generate a negatively charged molecule that cannot cross back across the cell membrane. This dye is used to monitor cell division by flow cytometry as each successive cell division leads to a dilution of CFSE among the daughter cells.
To administer pro-inflammatory stimuli at the same time as soluble antigen, OVA and (OVA)-3-1 were emulsified in Complete Freund's Adjuvant (CFA) prior to immunization. CFA is an oil-based mixture of mycobacterial cell wall components that is known to induce strong TH1 T cell responses^2. Seventy-two hours after immunization, cells from the draining lymph nodes were isolated and analyzed by flow cytometry for cell number and divisions (FIG. 7A). […] In fact, the enhancement previously observed relative to soluble OVA (FIG. 6B) was largely diminished. […] Without being tied to one particular theory, one potential reason for this observation could be that dendritic cells targeted with (OVA)-3-1 produced more peptide-MHC class II complexes than those targeted by OVA as receptor-mediated endocytosis delivered more antigen to the cell before full maturation was reached^10.
Since most lectins have weak affinities for monosaccharides, these experiments were repeated with BSA that was modified with approximately 25 mannose residues per protein molecule (mBSA). […] Mice that had received CFSE-labeled OTH T cells were immunized with mBSA, OVA, (OVA)-3-1, OVA plus mBSA, or (OVA)-3-1 plus mBSA and their T cell responses were analyzed at seventy-two hours (FIG. 7B). […]

[1] = system: CD11c+ dendritic cells / OTII T cells; experiment: Antigen presentation assay, purified CD11c+ dendritic cells and purified OTII T cells; format: cell-based, mouse
Description: FIGS. 4A, 4B, 4C and 4D are graphs showing that CD11c^+ dendritic cells are the main antigen presenting cells presenting 3-1-targeted antigen. […] 1.5×10^4 Splenic CD11c^+ dendritic cells purified from C57BL/6 mice and 3.0×10^4 purified OTII T cells were incubated with OVA (starting concentration 300 μg mL^−1) or (OVA)-3-1 (starting concentration 25 μg mL^−1) in graded doses for eight-four hours with [^3H]thymidine (1 μCi) added for the last twelve hours. […] Purified CD11c^+ dendritic cells and OTII T cells were incubated with (OVA)-3-1 (25 μg mL^−1)±each potential inhibitor (100 μg mL^−1). T cell proliferation was determined as for FIG. 4A. […] CD11c^+ dendritic cells and OTII T cells were incubated with OVA or (OVA)-3-1±lipopolysaccharide ([…]). Also included are all ‘non-dendritic cells’ (macrophages and B cells) obtained during the purification of the dendritic cells. T cell proliferation was determined as described in FIG. 4A. […] Supernatants from cells described in FIG. 4C were collected at forty-eight and seventy-two hours and measured for IFN-γ by ELISA; the values presented are from the seventy-two hour time point. All measurements here were performed in triplicate.
To confirm that the increased T cell proliferation observed with (OVA)-3-1 was due to the selective uptake of this conjugate by dendritic cells and not B cells or macrophages, purified CD11c^+ dendritic cells were prepared from wild-type C57BL/6 mice and the OVA-specific T cells from transgenic OTII mice (see Materials & Methods). The in vitro antigen presentation assays described above were then repeated. […] By comparison, >50-fold more unmodified OVA was required to obtain similar levels of T cell proliferation. When B cells and macrophages were used as antigen-presenting cells in place of purified dendritic cells, the resulting T cell responses were negligible (FIG. 4C), providing strong confirmation that CD11c^+ dendritic cells are the main antigen-presenting cells mediating uptake and presentation of (OVA)-3-1 to OTII T cells.
Pooled inguinal lymph nodes were dissociated in 10% Fetal Bovine Serum RPMI (supplemented with 2 mM L-glutamine) and either mechanically dissociated between two glass slides or, to improve the overall cell yield, incubated in the presence of collagenase (Boehringer) and EDTA for 25 minutes at 37° C./5% CO2 to dissociate DC-T cell clusters. For antigen presentation assays with whole splenocytes, isolated spleens were injected with collagenase/EDTA, gently teased apart and incubated as described above. Splenocytes were cultured in 96-well round-bottom plates at a density of 3×10^5 cells/0.2 mL. In antigen presentation assays utilizing purified dendritic cells and T cells, dendritic cells were isolated from the spleens of C57BL/6 mice following collagenase/EDTA treatment by labeling the dendritic cells with commercially available magnetic microbeads linked to an anti-CD11c^+ antibody (Miltenyi Biotec, Bergisch Gladbach, Germany) (according to the Miltenyi Biotec protocol) and separating labeled Dendritic cells from non-dendritic cells by application of a magnetic field. Similarly, purified […] T cells were obtained from spleens of OTII transgenic mice using magnetic beads Dynal (Oslo, Norway). Purified dendritic cells and T cells were seeded onto 96-well plates round-bottom Plates at a 1:2 DC:T cell ratio unless stated otherwise in the Figures.

[2] = purified CD11c+ dendritic cells and OTII T cells

mBSA: BSA modified with approximately 25 mannose residues per protein molecule [reference compound]
OTII T cell proliferation after immunization with mBSA alone (OTII T cells; mBSA 50 μg subcutaneous, 72 h): did not proliferate
inhibitory effect on (OVA)-3-1 presentation by dendritic cells ([1]; (OVA)-3-1 25 μg mL^−1, inhibitor 100 μg mL^−1): Neither mBSA nor Lewis^x-BSA were inhibitory

B1: (OVA)-3-1: ovalbumin modified via SMCC with nonasaccharide 3-1, average of three saccharides per OVA (conjugate)
chain: GSIGAASMEFCFDVFKELKVHHANENIFYCPIAIMSALAMVYLGAKDSTRTQINKVVRFDKLPGFGDSIEAQCGTSVNVHSSLRDILNQITKPNDVYSFSLASRLYAEERYPILPEYLQCVKELYRGGLEPINFQTAADQARELINSWVESQTNGIIRNVLQPSSVDSQTAMVLVNAIVFKGLWEKAFKDEDTQAMPFRVTEQESKPVQMMYQIGLFRVASMASEKMKILELPFASGTMSMLVLLPDEVSGLEQLESIINFEKLTEWTSSNVMEERKIKVYLPRMKMEEKYNLTSVLMAMGITDVFSSSANLSGISSAESLKISQAVHAAHAEINEAGREVVGSAEAGVDAASVSEEFRADHPFLFCIKHIATNAVLFFGRCVSP
increase in OTII T cell number compared to OVA (OTII T cells; 50 ng subcutaneous, 72 h): 2 fold
T cells that had undergone cell division (OTII T cells; 72 h): 58% and 55%
enhancement of T cell activation / proliferation relative to OVA in saline (OTII T cells; in vivo immunization): 2 fold
capture and presentation by purified CD11c+ dendritic cells to OTII T cells compared to soluble OVA ([1]; parallel titration series): highly efficient; also recorded: efficiently present
decrease in presentation to OTII T cells as a result of TLR-mediated dendritic cell maturation ([1]; plus lipopolysaccharide (LPS)): 60%
presentation to T cells upon TLR-4 stimulation ([1]; plus lipopolysaccharide (LPS)): remained better than targeting by unmodified OVA; also recorded: significantly decreased
low concentration at which capture and presentation was still highly efficient [1, 2]: 16 nM

B2: ovalbumin (protein, UniProt P01012 2-386, looked up)
Ovalbumin: GSIGAASMEFCFDVFKELKVHHANENIFYCPIAIMSALAMVYLGAKDSTRTQINKVVRFDKLPGFGDSIEAQCGTSVNVHSSLRDILNQITKPNDVYSFSLASRLYAEERYPILPEYLQCVKELYRGGLEPINFQTAADQARELINSWVESQTNGIIRNVLQPSSVDSQTAMVLVNAIVFKGLWEKAFKDEDTQAMPFRVTEQESKPVQMMYQIGLFRVASMASEKMKILELPFASGTMSMLVLLPDEVSGLEQLESIINFEKLTEWTSSNVMEERKIKVYLPRMKMEEKYNLTSVLMAMGITDVFSSSANLSGISSAESLKISQAVHAAHAEINEAGREVVGSAEAGVDAASVSEEFRADHPFLFCIKHIATNAVLFFGRCVSP
notes: model antigen, unmodified
T cells that had undergone cell division (OTII T cells; 72 h): 33%
decrease in presentation to OTII T cells as a result of TLR-mediated dendritic cell maturation ([1]; plus lipopolysaccharide (LPS)): 30%
excess of unmodified OVA required to obtain levels of T cell proliferation similar to (OVA)-3-1 [1, 2]: > 50 fold

Reference: patent US8273357B2, “Antigen-carbohydrate conjugates” (Massachusetts Institute of Technology, priority 2004, dated 2012)
